Assay results published in patent US12227771B2, “Expression systems and methods of use thereof” (Janssen Pharmaceutica NV, priority 2019, dated 2025).

B1: TMEM132D: Transmembrane protein 132D, SEQ ID NO: 7, co-transfected cDNA clone (protein, listed as Homo sapiens)
chain: MCPSEMGTLWHHWSPVLISLAALFSKVTEGRGILESIQRFSLLPTYLPVTYHINNADVSFFLKEANQDIMRNSSLQSRVESFLIYKSRRLPVLNASYGPFSIEQVVPQDLMLPSNPFGFTNKFSLNWKLKAHILRDKVYLSRPKVQVLFHIMGRDWDDRSAGEKLPCLRVFAFRETREVRGSCRLQGDLGLCVAELELLSSWFSPPTVVAGRRKSVDQPEGTPVELYYTVHPGGERGDCVREDARRSNGIRTGHSDIDESGPPLQRIGSIFLYQTHRKPSLRELRLDNSVAIHYIPKTVRKGDVLTFPVSISRNSTEDRFTLRAKVKKGVNIIGVRASSPSIWDVKERTDYTGKYAPAVIVCQKKAAGSENSADGASYEVMQIDVEVEEPGDLPATQLVTWQVEYPGEITSDLGVSKIYVSPKDLIGVVPLAMEAEILNTAILTGKTVAVPVKVVSVEDDGTVTELLESVECRSSDEDVIKVSDRCDYVFVNGKEMKGKVNVVVNFTYQHLSSPLEMTVWVPRLPLQIEVSDTELNQIKGWRVPIVSSRRPAGDSEEEEDDERRGRGCTLQYQHAMVRVLTQFVAEAAGPGGHLAHLLGSDWQVDITELINDFMQVEEPRIAKLQGGQILMGQELGMTTIQILSPLSDTILAEKTITVLDEKVTITDLGVQLVTGLSLSLQLSPGSNRAIFATAVAQELLQRPKQEAAISCWVQFSDGSVTPLDIYDGKDFSLMATSLDEKVVSIHQDPKFKWPIIAAETEGQGTLVKVEMVISESCQKSKRKSVLAVGTANIKVKFGQNDANPNTSDSRHTGAGVHMENNVSDRRPKKPSQEWGSQEGQYYGSSSMGLMEGRGTTTDRSILQKKKGQESLLDDNSHLQTIPSDLTSFPAQVDLPRSNGEMDGNDLMQASKGLSDLEIGMYALLGVFCLAILVFLINCVTFALKYRHKQVPFEEQEGMSHSHDWVGLSNRTELLENHINFASSQDEQITAIDRGMDFEESKYLLSTNSQKSINGQLFKPLGPIIIDGKDQKSEPPTSPTSKRKRVKFTTFTAVSSDDEYPTRNSIVMSSEDDIKWVCQDLDPGDCKELHNYMERLHENV
B2: TMIE: Transmembrane inner ear expressed protein, SEQ ID NO: 4, co-transfected cDNA clone (protein, listed as Homo sapiens)
chain: MAGWPGAGPLCVLGGAALGVCLAGVAGQLVEPSTAPPKPKPPPLTKETVVFWDMRLWHVVGIFSLFVLSIIITLCCVFNCRVPRTRKEIEARYLQRKAAKMYTDKLETVPPLNELTEVPGEDKKKKKKKKKDSVDTVAIKVEEDEKNEAKKKKGEK
B3: TMEM132C: Transmembrane protein 132C, SEQ ID NO: 6, co-transfected cDNA clone (protein, listed as Homo sapiens)
chain: MRSEGAAPGPAAPLCGALSLLLGALLGKVIEGHGVTDNIQRFSSLPPYLPVSYHILRAETSFFLKEANQDLLRNSSLQARVESFFTYKTRQPPVLNASYGPFSVEKVVPLDLMLTSNFLGPTNKFSFDWKLKAHILRDKVYLSRPKVQVLFHIMGRDWDDHGAGEKLPCLRVFAFRETREVRGSCRLKGDLGLCVAELELLSSWFSAPTVGAGRKKSMDQPEGTPVELYYTVHPGNERGDCAGGDFRKGNAIRPGKDGLEETTSHLQRIGTVGLYRAQDSAQLSELRLDGNVVIWLPSRPVKQGEVVTAYVTISSNSSVDLFILRAKVKKGVNILSAQTREPRQWGVKQEVGSGGKHVTATVACQRLGPSPRNRSSSLFNEVVQMNFEIASFSSLSGTQPITWQVEYPRKGTTDIAVSEIFVSQKDLVGIVPLAMDTEILNTAVLTGKTVAMPIKVVSVEENSAVMDISESVECKSTDEDVIKVSERCDYIFVNGKEIKGKMDAVVNFTYQYLSAPLCVTVWVPRLPLQIEVSDTELSQIKGWRVPIVTNKRPTRESEDEDEEERRGRGCALQYQHATVRVLTQFVSEGAGPWGQPNYLLSPNWQFDITHLVADFMKLEEPHVATLQDSRVLVGREVGMTTIQVLSPLSDSILAEKTITVLDDKVSVTDLAIQLVAGLSVALYPNAENSKAVTAVVTAEEVLRTPKQEAVFSTWLQFSDGSVTPLDIYDTKDFSLAATSQDEAVVSVPQPRSPRWPVVVAEGEGQGPLIRVDMTIAEACQKSKRKSILAVGVGNVRVKFGQNDADSSPGGDYEEDEIKNHASDRRQKGQHHERTGQDGHLYGSSPVEREEGALRRATTTARSLLDNKVVKNSRADGGRLAGEGQLQNIPIDFTNFPAHVDLPKAGSGLEENDLVQTPRGLSDLEIGMYALLGVFCLAILVFLINCATFALKYRHKQVPLEGQASMTHSHDWVWLGNEAELLESMGDAPPPQDEHTTIIDRGPGACEESNHLLLNGGSHKHVQSQIHRSADSGGRQGREQKQDPLHSPTSKRKKVKFTTFTTIPPDDSCPTVNSIVSSNDEDIKWVCQDVAVGAPKELRNYLEKLKDKA
B4: CHAT: Choline O-acetyltransferase, SEQ ID NO: 3, co-transfected cDNA clone (protein, listed as Homo sapiens)
chain: MAAKTPSSEESGLPKLPVPPLQQTLATYLQCMRHLVSEEQFRKSQAIVQQFGAPGGLGETLQQKLLERQEKTANWVSEYWLNDMYLNNRLALPVNSSPAVIFARQHFPGTDDQLRFAASLISGVLSYKALLDSHSIPTDCAKGQLSGQPLCMKQYYGLFSSYRLPGHTQDTLVAQNSSIMPEPEHVIVACCNQFFVLDVVINFRRLSEGDLFTQLRKIVKMASNEDERLPPIGLLTSDGRSEWAEARTVLVKDSTNRDSLDMIERCICLVCLDAPGGVELSDTHRALQLLHGGGYSKNGANRWYDKSLQFVVGRDGTCGVVCEHSPFDGIVLVQCTEHLLKHMTQSSRKLIRADSVSELPAPRRLRWKCSPEIQGHLASSAEKLQRIVKNLDFIVYKFDNYGKTFIKKQKCSPDAFIQVALQLAFYRLHRRLVPTYESASIRRFQEGRVDNIRSATPEALAFVRAVTDHKAAVPASEKLLLLKDAIRAQTAYTVMAITGMAIDNHLLALRELARAMCKELPEMFMDETYLMSNRFVLSTSQVPTTTEMFCCYGPVVPNGYGACYNPQPETILFCISSFHSCKETSSSKFAKAVEESLIDMRDLCSLLPPTESKPLATKEKATRPSQGHQP
B5: TMEM132A: Transmembrane protein 132A, SEQ ID NO: 5, co-transfected cDNA clone (protein, listed as Homo sapiens)
chain: MCARMAGRTTAAPRGPYGPWLCLLVALALDVVRVDCGQAPLDPVYLPAALELLDAPEHFRVQQVGHYPPANSSLSSRSETFLLLQPWPRAQPLLRASYPPFATQQVVPPRVTEPHQRPVPWDVRAVSVEAAVTPAEPYARVLFHLKGQDWPPGSGSLPCARLHATHPAGTAHQACRFQPSLGACVVELELPSHWFSQASTTRAELAYTLEPAAEGPGGCGSGEENDPGEQALPVGGVELRPADPPQYQEVPLDEAVTLRVPDMPVRPGQLFSATLLLRHNFTASLLTLRIKVKKGLHVTAARPAQPTLWTAKLDRFKGSRHHTTLITCHRAGLTEPDSSPLELSEFLWVDFVVENSTGGGVAVTRPVTWQLEYPGQAPEAEKDKMVWEILVSERDIRALIPLAKAEELVNTAPLTGVPQHVPVRLVTVDGGGALVEVTEHVGCESANTQVLQVSEACDAVFVAGKESRGARGVRVDFWWRRLRASLRLTVWAPLLPLRIELTDTTLEQVRGWRVPGPAEGPAEPAAEASDEAERRARGCHLQYQRAGVRFLAPFAAHPLDGGRRLTHLLGPDWLLDVSHLVAPHARVLDSRVASLEGGRVVVGREPGVTSIEVRSPLSDSILGEQALAVTDDKVSVLELRVQPVMGISLTLSRGTAHPGEVTATCWAQSALPAPKQEVALSLWLSFSDHTVAPAELYDRRDLGLSVSAEEPGAILPAEEQGAQLGVVVSGAGAEGLPLHVALHPPEPCRRGRHRVPLASGTAWLGLPPASTPAPALPSSPAWSPPATEATMGGKRQVAGSVGGNTGVRGKFERAEEEARKEETEAREEEEEEEEEMVPAPQHVTELELGMYALLGVFCVAIFIFLVNGVVFVLRYQRKEPPDSATDPTSPQPHNWVWLGTDQEELSRQLDRQSPGPPKGEGSCPCESGGGGEAPTLAPGPPGGTTSSSSTLARKEAGGRRKRVEFVTFAPAPPAQSPEEPVGAPAVQSILVAGEEDIRWVCEDMGLKDPEELRNYMERIRGSS

Molecular target: T1, human α9α10 nAChR (Homo sapiens, UniProt Q9GZZ6+Q9UGM1)
T1 construct: expressed in transfected cells; host or cells: HEK293T
Assay: FLIPR calcium assay of HEK293T cells co-transfected with α9α10 nAChR and cDNA clones, response evoked by 200 μM ACh
Type: cell-based
Details: for FLIPR Response (Fold/Baseline) / functional expression of co-transfected α9α10 nAChR in cDNA library screen / combined effect of TMIE and CHAT on functional responses from α9α10 nAChR: 200 μM ACh; for FLIPR Response (Fold/Baseline): 180 s; for functional expression of co-transfected α9α10 nAChR in cDNA library screen: HEK293T, 20,000 cDNA clones; for FLIPR response evoked by 200 μM ACh: HEK293T transfected with α9α10 nAChR and the named protein; for combined effect of TMIE and CHAT on functional responses from α9α10 nAChR: HEK293T
Description: Human embryonic kidney 293T (HEK293T) cells were cultured in high glucose DMEM medium supplemented with 10% FBS, sodium pyruvate and penicillin/streptomycin. Prior to transfection, cells were seeded at ˜80-90% confluence in 384-well fluorescence imaging plate reader (FLIPR) assay plates. After a 4 hour (hr) incubation, wells of cells were individually co-transfected with human α9α10 nAChR plus one of 20,000 clones from cDNA libraries encoding most all human proteins (Origene Technologies; Rockville, Md.; Broad Institute; Cambridge, Mass.) using Fugene HD (Promega; Madison, Wis.) according to the manufacture's protocol. After two days incubation, cells were washed three times with assay buffer (137 mM NaCl, 4 mM KCl, 2 mM CaCl2, 1 mM MgCl2, 5 mM glucose, 10 mM HEPES pH7.4) and loaded with Calcium5 dye (Molecular Devices; San Jose, Calif.) and 1.25 mM probenecid for 1 hr at room temperature (RT). After three washes, the plates were placed in the FLIPR stage.
To further characterize the regulation of α9α10 nAChR expression, HEK293T cells were co-transfected with α9α10 nAChR and each of CHAT, TMIE, TMEM100, TMEM132A, TMEM132C, TMEM132D, TMEM132E and TNFRSF10A individually and in combination (Table 2).

[1] = HEK293T co-transfected with α9α10 nAChR + CHAT plus the named gene
[2] = HEK293T co-transfected with α9α10 nAChR plus the named gene

T1 sequence (Q9UGM1 23-479): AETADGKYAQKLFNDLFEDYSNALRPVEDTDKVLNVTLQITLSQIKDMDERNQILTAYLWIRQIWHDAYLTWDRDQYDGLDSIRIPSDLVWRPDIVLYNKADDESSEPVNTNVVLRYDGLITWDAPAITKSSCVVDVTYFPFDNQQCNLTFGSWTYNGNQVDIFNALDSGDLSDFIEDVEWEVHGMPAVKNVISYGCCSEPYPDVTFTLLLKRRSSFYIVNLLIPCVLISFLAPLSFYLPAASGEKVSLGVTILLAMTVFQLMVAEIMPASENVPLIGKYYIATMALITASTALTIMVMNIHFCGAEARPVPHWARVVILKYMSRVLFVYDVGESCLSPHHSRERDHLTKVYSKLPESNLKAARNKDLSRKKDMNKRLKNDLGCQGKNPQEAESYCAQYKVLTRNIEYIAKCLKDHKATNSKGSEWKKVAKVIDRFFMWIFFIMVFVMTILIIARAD
T1 sequence (Q9GZZ6 25-450): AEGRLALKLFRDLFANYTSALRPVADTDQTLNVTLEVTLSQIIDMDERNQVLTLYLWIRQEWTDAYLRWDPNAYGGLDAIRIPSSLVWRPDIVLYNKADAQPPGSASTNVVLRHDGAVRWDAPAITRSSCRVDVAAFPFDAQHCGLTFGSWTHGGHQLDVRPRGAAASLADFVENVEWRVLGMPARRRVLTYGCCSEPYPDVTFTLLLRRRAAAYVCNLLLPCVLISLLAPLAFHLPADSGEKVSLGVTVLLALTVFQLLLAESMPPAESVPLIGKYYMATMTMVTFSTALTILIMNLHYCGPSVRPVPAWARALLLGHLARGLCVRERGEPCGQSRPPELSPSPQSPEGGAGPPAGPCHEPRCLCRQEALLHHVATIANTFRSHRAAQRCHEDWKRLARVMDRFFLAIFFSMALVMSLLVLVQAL

| Molecule | FLIPR Response (Fold/Baseline) [1] [Fold/Baseline] | FLIPR Response (Fold/Baseline) [2] [Fold/Baseline] | functional expression of co-transfected α9α10 nAChR in cDNA library screen | FLIPR response evoked by 200 μM ACh | combined effect of TMIE and CHAT on functional responses from α9α10 nAChR |
| --- | --- | --- | --- | --- | --- |
| B1 | 2.6 | 0.4 | enabled functional expression | – | – |
| B2 | 2.2 | 0.7 | enabled functional expression | significant FLIPR responses | synergized to enhance functional responses |
| B3 | 2.0 | 0.7 | enabled functional expression | – | – |
| B4 | – | – | enabled functional expression | significant FLIPR responses | synergized to enhance functional responses |
| B5 | 2.5 | 0.3 | enabled functional expression | – | – |
